Data reported in patent publication US20170210809A1 (DYAX, published 2017).

Columns and labels:
[1] = molecular target: T1, ErbB3 (HER3) on tumor cells (human, UniProt P21860 20-1342); test: FACS on ADRr cells (n = 3), apparent Kd
T1 construct: whole, on cells; Endogenous receptor on human tumor cell lines
Experimental: (§1) 1×10⁵ MCF7 cells and 1×10⁵ ADRr cells are incubated at room temperature for 2 hours with the BBA at 2 uM, followed by 12 subsequent 3-fold dilutions. Then using goat anti-HSA-Alexa647 conjugated antibody as the detection antibody, cells are incubated on ice for 40 minutes. Cell binding dissociation constants (measures of binding affinities) of the BBAs on MCF7 and ADRr cells are assessed by FACS and apparent dissociation constants are determined for each BBA. The following results were obtained (also see FIGS. 12a and 12b): […]

[2] = molecular target: T1, ErbB3 (HER3) on tumor cells; test: FACS on MCF7 cells (n = 1), apparent Kd
[3] = molecular target: IGF-1R and ErbB3 together on tumor cells (MCF7, ADRr, BXPC3) (human) (UniProt P08069); test: FACS on MCF7 cells (n = 1), apparent Kd
Sequence of IGF-1R and ErbB3 together on tumor cells (MCF7, ADRr, BXPC3) (human) (P08069 31-1367, chain 1 of 2): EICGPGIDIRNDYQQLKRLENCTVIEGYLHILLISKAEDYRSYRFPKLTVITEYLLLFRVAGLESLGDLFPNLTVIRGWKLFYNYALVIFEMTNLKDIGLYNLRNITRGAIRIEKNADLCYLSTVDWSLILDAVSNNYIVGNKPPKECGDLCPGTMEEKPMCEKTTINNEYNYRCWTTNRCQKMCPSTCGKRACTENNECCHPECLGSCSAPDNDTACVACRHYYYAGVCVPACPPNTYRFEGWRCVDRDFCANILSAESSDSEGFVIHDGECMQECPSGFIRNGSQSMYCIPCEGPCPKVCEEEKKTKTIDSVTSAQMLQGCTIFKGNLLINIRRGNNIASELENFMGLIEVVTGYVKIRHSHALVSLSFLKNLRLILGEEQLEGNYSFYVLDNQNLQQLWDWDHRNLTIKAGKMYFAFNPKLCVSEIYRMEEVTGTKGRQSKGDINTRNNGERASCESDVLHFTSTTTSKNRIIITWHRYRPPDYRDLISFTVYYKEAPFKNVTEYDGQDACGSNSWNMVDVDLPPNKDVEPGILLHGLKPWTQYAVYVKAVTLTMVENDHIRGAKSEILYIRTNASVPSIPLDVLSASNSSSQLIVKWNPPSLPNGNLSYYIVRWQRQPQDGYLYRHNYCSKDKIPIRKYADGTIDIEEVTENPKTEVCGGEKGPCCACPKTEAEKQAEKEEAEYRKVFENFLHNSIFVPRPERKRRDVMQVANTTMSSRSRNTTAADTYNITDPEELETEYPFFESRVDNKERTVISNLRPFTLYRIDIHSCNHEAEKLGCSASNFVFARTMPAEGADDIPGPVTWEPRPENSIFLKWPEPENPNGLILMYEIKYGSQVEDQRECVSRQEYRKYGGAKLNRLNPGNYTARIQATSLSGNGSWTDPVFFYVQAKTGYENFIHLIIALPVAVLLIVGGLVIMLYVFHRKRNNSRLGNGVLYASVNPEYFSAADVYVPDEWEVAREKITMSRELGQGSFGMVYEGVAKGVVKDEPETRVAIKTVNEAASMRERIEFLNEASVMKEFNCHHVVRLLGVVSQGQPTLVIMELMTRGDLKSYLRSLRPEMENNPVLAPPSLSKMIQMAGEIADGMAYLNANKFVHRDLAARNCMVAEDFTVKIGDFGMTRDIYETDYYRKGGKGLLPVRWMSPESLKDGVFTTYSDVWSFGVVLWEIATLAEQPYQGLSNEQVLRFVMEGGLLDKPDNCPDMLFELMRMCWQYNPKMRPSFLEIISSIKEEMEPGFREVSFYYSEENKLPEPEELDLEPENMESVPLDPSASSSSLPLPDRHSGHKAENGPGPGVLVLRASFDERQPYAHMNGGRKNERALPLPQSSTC
Sequence of IGF-1R and ErbB3 together on tumor cells (MCF7, ADRr, BXPC3) (human) (P21860 20-1342, chain 2 of 2, further chain): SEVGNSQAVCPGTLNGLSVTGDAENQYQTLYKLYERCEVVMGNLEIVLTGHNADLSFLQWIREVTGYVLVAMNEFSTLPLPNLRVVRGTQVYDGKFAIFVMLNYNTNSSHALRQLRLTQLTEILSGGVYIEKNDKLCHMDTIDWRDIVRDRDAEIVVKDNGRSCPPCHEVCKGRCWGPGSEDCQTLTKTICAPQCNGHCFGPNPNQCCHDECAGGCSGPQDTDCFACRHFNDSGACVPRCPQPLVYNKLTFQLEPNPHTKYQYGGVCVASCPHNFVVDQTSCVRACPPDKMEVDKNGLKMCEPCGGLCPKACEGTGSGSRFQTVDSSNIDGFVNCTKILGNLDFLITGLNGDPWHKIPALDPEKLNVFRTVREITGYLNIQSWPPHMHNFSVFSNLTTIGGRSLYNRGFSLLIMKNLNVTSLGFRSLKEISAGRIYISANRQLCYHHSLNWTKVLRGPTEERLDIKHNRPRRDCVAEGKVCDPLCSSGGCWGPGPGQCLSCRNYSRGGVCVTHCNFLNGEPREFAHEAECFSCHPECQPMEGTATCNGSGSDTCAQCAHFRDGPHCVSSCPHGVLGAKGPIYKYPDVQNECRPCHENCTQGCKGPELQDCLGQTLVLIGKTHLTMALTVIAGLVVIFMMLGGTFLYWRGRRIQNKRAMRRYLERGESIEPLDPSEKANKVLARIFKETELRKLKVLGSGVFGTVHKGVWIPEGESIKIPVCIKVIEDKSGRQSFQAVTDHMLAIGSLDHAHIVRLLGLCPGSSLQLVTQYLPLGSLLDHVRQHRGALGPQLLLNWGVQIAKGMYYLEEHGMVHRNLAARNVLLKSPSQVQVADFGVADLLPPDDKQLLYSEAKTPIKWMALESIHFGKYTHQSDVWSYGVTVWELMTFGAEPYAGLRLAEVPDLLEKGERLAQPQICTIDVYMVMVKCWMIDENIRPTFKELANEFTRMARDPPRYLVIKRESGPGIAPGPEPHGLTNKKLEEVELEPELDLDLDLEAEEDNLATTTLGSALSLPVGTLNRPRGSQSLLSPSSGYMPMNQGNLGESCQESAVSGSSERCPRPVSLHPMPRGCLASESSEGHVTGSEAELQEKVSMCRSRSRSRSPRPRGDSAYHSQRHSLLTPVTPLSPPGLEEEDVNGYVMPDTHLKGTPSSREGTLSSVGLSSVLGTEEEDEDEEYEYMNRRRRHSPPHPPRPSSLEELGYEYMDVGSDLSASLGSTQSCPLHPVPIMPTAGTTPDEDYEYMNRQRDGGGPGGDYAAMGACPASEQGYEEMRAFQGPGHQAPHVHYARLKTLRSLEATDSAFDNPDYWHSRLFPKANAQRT

[4] = molecular target: IGF-1R and ErbB3 together on tumor cells (MCF7, ADRr, BXPC3) (human) (UniProt P08069); test: FACS on ADRr cells (n = 3), apparent Kd
[5] = molecular target: T1, ErbB3 (HER3) on tumor cells; test: FACS on ADRr and MCF7 cells
[6] = molecular target: T2, IGF-1R (insulin-like growth factor 1 receptor) on tumor cells (human, UniProt P08069 31-1367); test: FACS on ADRr and MCF7 cells
T2 construct: whole, on cells; Endogenous receptor on human tumor cell lines
T2 sequence (P08069 31-1367): as the sequence (P08069 31-1367, chain 1 of 2) above

[7] = molecular target: T1, ErbB3 (HER3) on tumor cells; test: cell-based or functional assay
[8] = molecular target: T1, ErbB3 (HER3) on tumor cells; test: FACS binding to ADRr cells, y axis 'GaH-A647 Mean', x axis Ab [nM] (log)
[9] = molecular target: T2, IGF-1R (insulin-like growth factor 1 …); test: cell-based or functional assay
[10] = molecular target: T2, IGF-1R (insulin-like growth factor 1 …); test: FACS on ADRr cells (n = 3), apparent Kd
Experimental: as §1

[11] = molecular target: T2, IGF-1R (insulin-like growth factor 1 …); test: FACS on MCF7 cells (n = 1), apparent Kd

T1 sequence (P21860 20-1342): as the sequence (P21860 20-1342, chain 2 of 2, further chain) above

B1: IgG version of SEQ ID NO: 33 (antibody, V domains shown)
VH: EVQLLESGGGLVQPGGSLRLSCAASGFTFSAYNMRWVRQAPGKGLEWVSVIYPSGGATRYADSVKGRFTISRDNSKNTLYLQMNSLRAEDTAVYYCARGYYYYGMDVWGQGTLVTVSS
VL: QSVLTQPPSASGTPGQRVTISCSGSDSNIGRNYIYWYQQFPGTAPKLLIYRNNQRPSGVPDRISGSKSGTSASLAISGLRSEDEAEYHCGTWDDSLSGPVFGGGTKLTVLG
Kd [1]: 1200 pM | Kd [2]: 900 pM

B2: ILE-10 (bispecific antibody, human IgG2, kappa)
heavy: EVQLLESGGGLVQPGGSLRLSCAASGFTFSVYPMHWVRQAPGKGLEWVSSISSSGGATRYADSVKGRFTISRDNSKNTLYLQMNSLRAEDTAVYYCAKDFYDILTGNAFDIWGQGTMVTVSSASTKGPSVFPLAPCSRSTSESTAALGCLVKDYFPEPVTVSWNSGALTSGVHTFPAVLQSSGLYSLSSVVTVPSSNFGTQTYTCNVDHKPSNTKVDKTVERKCCVECPPCPAPPVAGPSVFLFPPKPKDTLMISRTPEVTCVVVDVSHEDPEVQFNWYVDGVEVHNAKTKPREEQFNSTFRVVSVLTVVHQDWLNGKEYKCKVSNKGLPAPIEKTISKTKGQPREPQVYTLPPSREEMTKNQVSLTCLVKGFYPSDIAVEWESNGQPENNYKTTPPMLDSDGSFFLYSKLTVDKSRWQQGNVFSCSVMHEALHNHYTQKSLSLSPGKGGGGSGGGGSGGGGSLQEVQLLESGGGLVQPGGSLRLSCAASGFTFSAYNMRWVRQAPGKGLEWVSVIYPSGGATRYADSVKGRFTISRDNSKNTLYLQMNSLRAEDTAVYYCARGYYYYGMDVWGQGTLVTVSSASTGGGGSGGGGSGGGGSQSVLTQPPSASGTPGQRVTISCSGSDSNIGRNYIYWYQQFPGTAPKLLIYRNNQRPSGVPDRISGSKSGTSASLAISGLRSEDEAEYHCGTWDDSLSGPVFGGGTKLTVLS
light: DIQMTQSPSSFSASTGDRVTITCRASQGISSYLAWYQQKPGKAPKLLIYAASTLQSGVPSRFSGSGSGTDFTLTISSLQPEDSATYYCQQYFTFPLTFGGGTKVEIKRTVAAPSVFIFPPSDEQLKSGTASVVCLLNNFYPREAKVQWKVDNALQSGNSQESVTEQDSKDSTYSLSSTLTLSKADYEKHKVYACEVTHQGLSSPVTKSFNRGEC
notes: IgG-linked BBA, designed to be functionally dimeric; the numbers of ILE-10 stand on the line that begins with ILE-11; also called Bs14F3 huIgG2
Kd [3]: 4500 pM | Kd [4]: 7100 pM | binding result [5]: binds | binding result [6]: binds

B3: ILE-12 (bispecific antibody, human IgG2, kappa)
heavy: EVQLLESGGGLVQPGGSLRLSCAASGFTFSVYPMHWVRQAPGKGLEWVSSISSSGGATRYADSVKGRFTISRDNSKNTLYLQMNSLRAEDTAVYYCAKDFYDILTGNAFDIWGQGTMVTVSSASTKGPSVFPLAPCSRSTSESTAALGCLVKDYFPEPVTVSWNSGALTSGVHTFPAVLQSSGLYSLSSVVTVPSSNFGTQTYTCNVDHKPSNTKVDKTVERKCCVECPPCPAPPVAGPSVFLFPPKPKDTLMISRTPEVTCVVVDVSHEDPEVQFNWYVDGVEVHNAKTKPREEQFNSTFRVVSVLTVVHQDWLNGKEYKCKVSNKGLPAPIEKTISKTKGQPREPQVYTLPPSREEMTKNQVSLTCLVKGFYPSDIAVEWESNGQPENNYKTTPPMLDSDGSFFLYSKLTVDKSRWQQGNVFSCSVMHEALHNHYTQKSLSLSPGKGGGGSGGGGSGGGGSLQEVQLLESGGGLVQPGGSLRLSCAASGFTFSVYDMYWVRQAPGKGLEWVSYIYSSGGDTDYADSVKGRFTISRDNSKNTLYLQMNSLRAEDTATYYCARASTNSIYDAMDVWGQGTTVTVSSASTGGGGSGGGGSGGGGSDIQMTQSPSSVSASVGDRVTITCRASQDITNWLAWYQQKPGKAPTLLIYDASTLQSGVPSRFSGSGSGTDFTLTISSLQPEDFATYFCQQANGFPLTFGGGTKVEIK
light: B2 light
notes: IgG-linked BBA, designed to be functionally dimeric; the numbers of ILE-12 stand on the line that begins with ILE-13; also called Bs15F3 huIgG2
Kd [3]: 600 pM | Kd [4]: 300 pM | binding result [5]: binds | binding result [6]: binds

B4: Ab #6 (MM-121) (antibody, INN chains, looked up, V domains shown)
VH: EVQLLESGGGLVQPGGSLRLSCAASGFTFSHYVMAWVRQAPGKGLEWVSSISSSGGWTLYADSVKGRFTISRDNSKNTLYLQMNSLRAEDTAVYYCTRGLKMATIFDYWGQGTLVTVSS
VL: QSALTQPASVSGSPGQSITISCTGTSSDVGSYNVVSWYQQHPGKAPKLIIYEVSQRPSGVSNRFSGSKSGNTASLTISGLQTEDEADYYCCSYAGSSIFVIFGGGTKVTVL
Ki, inhibition of BTC-induced pErbB3 formation (ELISA, ADRr cells) [7]: 1.1 nM | Ki, inhibition of HRG-induced pErbB3 formation (ELISA, ADRr cells) [7]: 0.1 nM

B5: IgG version of SEQ ID NO: 44 (antibody, V domains shown)
VH: EVQLLESGGGLVQPGGSLRLSCAASGFTFSVYDMYWVRQAPGKGLEWVSYIYSSGGDTDYADSVKGRFTISRDNSKNTLYLQMNSLRAEDTATYYCARASTNSIYDAMDVWGQGTTVTVSS
VL: DIQMTQSPSSVSASVGDRVTITCRASQDITNWLAWYQQKPGKAPTLLIYDASTLQSGVPSRFSGSGSGTDFTLTISSLQPEDFATYFCQQANGFPLTFGGGTKVEIK
EC50 (read off the curve) [8]: ~300 pM | Kd [1]: 400 pM | Kd [2]: 40 pM

B6: AB5-7 IgG2 (antibody, V domains shown)
VH: EVQLLESGGGLVQPGGSLRLSCAASGFTFSVYPMHWVRQAPGKGLEWVSSISSSGGATRYADSVKGRFTISRDNSKNTLYLQMNSLRAEDTAVYYCAKDFYDILTGNAFDIWGQGTMVTVSS
VL: DIQMTQSPSSFSASTGDRVTITCRASQGISSYLAWYQQKPGKAPKLLIYAASTLQSGVPSRFSGSGSGTDFTLTISSLQPEDSATYYCQQYFTFPLTFGGGTKVEIKR
Ki, inhibition of IGF2-induced pAKT formation (ELISA, MCF7 cells) [9]: 0.7 nM

B7: IgG version of SEQ ID NO: 1 (antibody, V domains shown)
VH: B6 VH
VL: B6 VL
Kd [10]: 5100 pM | Kd [11]: 5600 pM
